B1: Hsp42ΔPrLD (purified) (domain or fragment, S. cerevisiae, UniProt Q12329 100-375, looked up)
chain: MVGDSGTTRQEDGGEDSNSRRYPSYYHCNTARNNRTNQQANSLNDLLTALIGVPPYEGTEPEIEANTEQEGEKGEEKDKKDKSEAPKEEAGETNKEKPLNQLEESSRPPLAKKSSSFAHLQAPSPIPDPLQVSKPETRMDLPFSPEVNVYDTEDTYVVVLALPGANSRAFHIDYHPSSHEMLIKGKIEDRVGIDEKFLKITELKYGAFERTVKFPVLPRIKDEEIKATYNNGLLQIKVPKIVNDTEKPKPKKRIAIEEIPDEELEFEENPNPTVEN
B2: malate dehydrogenase (MDH) (enzyme)
chain: AKVAVLGASGGIGQPLSLLLKNSPLVSRLTLYDIAHTPGVAADLSHIETRATVKGYLGPEQLPDCLKGCDVVVIPAGVPRKPGMTRDDLFNTNATIVATLTAACAQHCPDAMICIISNPVNSTIPITAEVFKKHGVYNPNKIFGVTTLDIVRANAFVAELKGLDPARVSVPVIGGHAGKTIIPLISQCTPKVDFPQDQLSTLTGRIQEAGTEVVKAKAGAGSATLSMAYAGARFVFSLVDAMNGKEGVVECSFVKSQETDCPYFSTPLLLGKKGIEKNLGIGKISPFEEKMIAEAIPELKASIKKGEEFVKNMK
B3: Hsp42ΔIDD (purified) (natural protein, S. cerevisiae, UniProt Q12329 1-375, looked up)
chain: MSFYQPSLSLYDVLNALSNQTGQRGQQGYPRQPQRPQRYHPHYGQVHVGGHHPRHHPLYSRYNGVPNTYYYQFPGQAYYYSPEYGYDDEDGEEEDQDEDSPEVNVYDTEDTYVVVLALPGANSRAFHIDYHPSSHEMLIKGKIEDRVGIDEKFLKITELKYGAFERTVKFPVLPRIKDEEIKATYNNGLLQIKVPKIVNDTEKPKPKKRIAIEEIPDEELEFEENPNPTVEN

Experiments:
SEC-MALS = biological target: the molecule itself; assay: SEC-MALS
[1] = biological target: Hsp42 WT (purified, C-terminally FLAG-tagged) (S. cerevisiae, UniProt Q12329 1-375); assay: HDX-MS
[2] = biological target: B2; assay: HDX-MS

| Binder | stoichiometry N (SEC-MALS) [subunits] | binding result [1] | binding result [2] |
| --- | --- | --- | --- |
| B1 | 4 | – | – |
| B2 | – | binds | – |
| B3 | 36 | – | binds |
